The source of these data is the supplement of paper PMC7125110.

± gives the standard error. This sample holds only a part of the variants without activity.

B1: glmS ribozyme (parent)
chain: AUAAAAGCGCCAGAACUACAGAAAUGUAGUUGACGAGGAGGAGGUUUAUCGAAUUUUCGGCGGAUGCCUCCAAA

In one data set the parent is B1. Kind of data set: self-cleavage kobs at 2500 uM GlcN6P; higher = faster cleavage; RNA array. As to conditions: with glucosamine-6-phosphate. Put shortly: (§1)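 In situ transcription by E. coli RNA polymerase produced barcoded ribozyme variants on sequenced MiSeq chips, and a hybridised Cy3 probe tracked them at 37 °C. Glucosamine-6-phosphate was flowed in at 40 μM to 10 mM in HEPES/KCl/Mg(OAc)2 buffer. kcat and KM were taken from weighted Michaelis–Menten fits of kobs values from exponential decay fits.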
AUAAAAGCGCCAGAACUACAGAAAUGUAGUUGUCGAGGAGGAGGUUUUUCGAAUUUUCAGUGGAUGCCUCUAAA [A33U A48U G59A C61U C71U]: the “self-cleavage kobs at 2500 uM GlcN6P” value is < 1e-05 s⁻¹. Still for that read-out and setting: to AUAAAAGCGCCAAAACUACAGAAAUGUAGUUGACGAGGAGGAGGUUUAUCCAAUUUUCGGCGGAUGGCUCCAAA [G13A G51C C67G] belongs < 1e-05 s⁻¹.

AUAAAAGCGCCAGAACUACAGAAAUGUAGUUGACGAGACGGAGGUUUAUGGAAUUUUCGGCGGAUGCAUCCAAA [G38A A39C C50G C68A]: the “self-cleavage kobs at 2500 uM GlcN6P” value came out at 5.88e-05 ± 2.8e-05 s⁻¹. Same read-out and setting: the same measure for AUAAAAGGGCCAGCACUACAGAAAUGUAGUUGACGAGGAGGAGGUUUAUCGAAUUUUCGGCGGAUGCCUCGAAA [C8G A14C C71G]: < 1e-05 s⁻¹. The same measure, in the same setting: the same measure for AUAAAAGCGCCAGAACUACAGAAAUGUAGUUGACGAGGAGGAGGUUUUUCGAAUUUUCGCAGGAUGCCUCCAAA [A48U G60C C61A]: < 1e-05 s⁻¹; for AUAAAAGCGCCAGAACUACAGAAAUGUAGUUGACGUGGAGGAGGUAUAUCGAAUUGUCGGCGGAUGCCUCCAAA [A36U U46A U56G]: < 1e-05 s⁻¹; for AUAAAAGCGCCAGAUCUACAGAAAUGUAGGUGACGAGGAGGAGGUUUAUCGAAUUUUUGGCGGAUGCCUCCAAA [A15U U30G C58U]: 2.92e-05 ± 1.5e-05 s⁻¹. The same measure, in the same setting: to AUAAAAGCGCCAGAACUACAGAAAUGUAGUUGACGAGGAGGUGGUUUGUCGGAUUUUGGGCGGAUGCCUCCAAA [A42U A48G A52G C58G] belongs < 1e-05 s⁻¹. For AUAAAAGCGCCAGAACUACAGAAAUGUAGUUGCCGAAGAGGAGGUUUAUCGAAUUUUCGCCGGAUGCCUCCAAA [A33C G37A G60C], the “self-cleavage kobs at 2500 uM GlcN6P” value is < 1e-05 s⁻¹. Take AUAAAAGCGCCAGAACUACAGAAAUGUAGUUGACUAGGAGGAGGUUUAUCGAAUUUACGGCGGAUGCCACCAAA [G35U U57A U69A]: the “self-cleavage kobs at 2500 uM GlcN6P” value is < 1e-05 s⁻¹. On the same count and under the same terms, the same measure for AUAAAAGCGCCAGAACUACAGAAAUGUAGUUGACGAGGAGGACGAUUAUCGAAUUUUCGGCGGAUGCGUCCAAA [G43C U45A C68G]: 0.00405 ± 0.0014 s⁻¹; for AUAAAAGCGCCAGAACUACAGAAAUGUAGUUGACGAGCAGGAGGUGUAUCGAAUUUUCAGCGGAUGCCUCCAAA [G38C U46G G59A]: < 1e-05 s⁻¹. Still for that read-out and setting: to AUAAAAGCCCAAGAACUACAGAAAUGUAGUUGACAAUGCGGAGGUUUAUCGAAUUUUCUGCGGAUGCCUCCAAA [G9C C11A G35A G37U A39C G59U] belongs < 1e-05 s⁻¹. The same measure, in the same setting: the same measure for AUAAAGAUGCCAGAACUACAGAAAUGUAGUUGACGAGGAGGAGGUUUAUCGAAUUUUCGGUGGAUGCCUCCAAA [A6G G7A C8U C61U]: < 1e-05 s⁻¹; for AUAAAAGCGCCAGAACUACAGAAAUGUAGUUGACGAGGAGGAGCUUUGUCGAAUUUUCGGCGGAUGCCUCCAAA [G44C A48G]: < 1e-05 s⁻¹. Take AUAAAAGCGCUGGAAUUACAGAAAUGUAGUUGACGAGGAAGAGGUUUAUCGAAUUUUCGGCGGAUGCUUCCAAA [C11U A12G C16U G40A C68U]: the “self-cleavage kobs at 2500 uM GlcN6P” value is < 1e-05 s⁻¹. For the variant AUAAAAGCGCCAGAACUACAGAAAUGUAGUUGACGAGGAGUCGGUUUAUCGAAUUUUCGGAGGAUGCCUCCAAA [G41U A42C C61A], the “self-cleavage kobs at 2500 uM GlcN6P” value is < 1e-05 s⁻¹. Same read-out and setting: to AUAAAAGCGCCAGAACUACAGAAAUGUAGUUUACGACGAGGCGGUUUAUCGAAUUUUCGGCGGAUGCCUCCAAA [G32U G37C A42C] belongs < 1e-05 s⁻¹; to AUAAAGGCGCCCGAAUUACAGAAAUGUAGUUGACGAGGAGGAGGUUUAUCGAAUUUUCGGCGGAUGCCUCCAAA [A6G A12C C16U], 0.000167 ± 3.6e-05 s⁻¹. Turning to AUAAAGACGCCAGAAGUACAGAAAUGUAGUUGACGAGGAGGAGGUUUACCGAUUUUUCGGCGGAUGUCUCCAAA [A6G G7A C16G U49C A53U C67U], the “self-cleavage kobs at 2500 uM GlcN6P” value is < 1e-05 s⁻¹. On the same count and under the same terms, the same measure for AUAAAAGCGCCAGAACUACAGAAAUGUAGUUGACGGGGACGAGGUUUAUCGAAUUUUCGCCGGAUGCCUCCAAA [A36G G40C G60C]: < 1e-05 s⁻¹; for AUAAAAUCGCCAGAACUACAGAAAUGUAGUUGACUAGGAGGAGUUUUAUCGAAUUUUCGGCGGAUGCCUCCAAA [G7U G35U G44U]: < 1e-05 s⁻¹; for AUAAAAGCGCCAGAACUACAGAAAUGUAGCUGACUAGGAGGAGGUUUAUCAAUUUCUCGGCGGAUGCCUCCAAA [U30C G35U G51A A53U U56C]: < 1e-05 s⁻¹.

Consider AUAAAAGCGCCUGAACUACAGAAAUGUAGUUGACGAGGAAGAGGUUUAUCGAAUUUACGGCGGCUGCCUCCAAA [A12U G40A U57A A64C], for which the “self-cleavage kobs at 2500 uM GlcN6P” value was < 1e-05 s⁻¹.

Regarding AUAAAAGCGCCAGCACUACAGAAAUGUAGUAGACGAGGAGGAGGUUUAUCGAACUUACGGCGGAUGCCUCCAAA [A14C U31A U54C U57A], the “self-cleavage kobs at 2500 uM GlcN6P” value was determined as 0.000121 ± 3.3e-05 s⁻¹. Still for that read-out and setting: the same measure for AUAAAAGCGCCAGAACUACAGAAAUGUAGUUGAUGAGGAGGAGUUUUAACGAAUUUUCGGCGGAUGCCUCCAAA [C34U G44U U49A]: < 1e-05 s⁻¹; for AUAAAAGCGCCAGACCUACAGAAAUGUAGUUGACGAGGAGGAGGAUUAUCGAAUUUUCGGCGGGUGCCUCCAAA [A15C U45A A64G]: 0.00477 ± 0.002 s⁻¹.

Take AUAAAAGCGCCAGAACUACAGAAAUGUAGUUGACGAGGCGGAGGUUUAUCGAAUUUUCGGCGGAUGGCUACAAA [A39C C67G C70A]: the “self-cleavage kobs at 2500 uM GlcN6P” value was < 1e-05 s⁻¹. Consider AUAAAAGCGCCCGAACUACAGAAAUGUAGUGAACGAGGAGGAGGUUUAUCGAAUUUUCGGCGGAUGCCUCCAAA [A12C U31G G32A], for which the “self-cleavage kobs at 2500 uM GlcN6P” value is 0.000161 ± 5.6e-05 s⁻¹.

Consider AUAAAAGUGCCAGAACUACAGAAAUGUAGUUGCCGAGGAGGAGGUUUAUCGAAUUUUGGGCGGAUGCCUCCAAA [C8U A33C C58G], for which the “self-cleavage kobs at 2500 uM GlcN6P” value is < 1e-05 s⁻¹.

On to AUAAAACCGGCAGAACUACAGAAAUGUAGUUGACGAGGAGGAGGUUUCUCGAAUUUUCGGCGGAUGCCUCCAAA [G7C C10G A48C], for which the “self-cleavage kobs at 2500 uM GlcN6P” value is < 1e-05 s⁻¹.

Regarding AUAAAAGCGCCAGAACUACAGAAAUGUAGUUGACGAGGAGGACGUUUAUCCAAUUUUCGGCGGAAGCCUCCAAA [G43C G51C U65A], the “self-cleavage kobs at 2500 uM GlcN6P” value is < 1e-05 s⁻¹. Regarding AUAAAAGCGCCAGAACUACAGAAAUGUAGUUGACGAGGAGGUGGGUUAUCGACUUUUCGGCGGAUGCCUCCAAA [A42U U45G A53C], the “self-cleavage kobs at 2500 uM GlcN6P” value is 0.000111 ± 2.6e-05 s⁻¹.

For AUAAAAGCGCCAGAACUACAGAAAUGUAGUUGGCGAGGAGGAGGGUGAUCGAAUUUUCGGCGGAUGCCUCCAAA [A33G U45G U47G], the “self-cleavage kobs at 2500 uM GlcN6P” value is < 1e-05 s⁻¹.

Take AUAAAAGCGCCAGUACUACAGAAAUGUAGUAGACGAGGAGGAGGUUUAUCGAAUUUUCGGCGGAUGCCACCAAA [A14U U31A U69A]: the “self-cleavage kobs at 2500 uM GlcN6P” value was 0.000236 ± 5.6e-05 s⁻¹.

Variants of B1 are the subject of the next data set. Kind of data set: self-cleavage kobs at 10000 uM GlcN6P; higher = faster cleavage; RNA array. Particulars: with glucosamine-6-phosphate. Put shortly: as §1
On to AUAAAAGCGCCAGAACUACAGAAAUGUAGCUGACUAGGAGGAGGUUUAUCAAUUUCUCGGCGGAUGCCUCCAAA [U30C G35U G51A A53U U56C], for which the “self-cleavage kobs at 10000 uM GlcN6P” value was < 1e-05 s⁻¹. Same read-out and setting: the same measure for AUAAAAGCGCCAGCACUACAGAAAUGUAGUAGACGAGGAGGAGGUUUAUCGAACUUACGGCGGAUGCCUCCAAA [A14C U31A U54C U57A]: 9.39e-05 ± 1.9e-05 s⁻¹.
